Patent publication US20250011363A1, “OPTIMIZED SHORTENED PEPTIDE THAT BINDS TO ACETYLCHOLINE RECEPTOR, AND USE THEREOF” (SKINMED CO., LTD., priority 2021, published 2025)

These binders were tested against acetylcholine receptor (assay: SPR, AchR immobilised on chip, peptide 10 uM).
RNTIK [5mer-819] gave a Binding affinity (RU) of 19 RU.
With KMNIK [5mer-1119] the Binding affinity (RU) was 19 RU.
In the case of RIMHK [5mer-820], the Binding affinity (RU) is reported as 28 RU.
Binder RPPDR [5mer-1120] has a Binding affinity (RU) of 33 RU.
With RESDR [5mer-821] the Binding affinity (RU) was 12 RU.
With RFKVK [5mer-1121] the Binding affinity (RU) was 29 RU.
Binder RAKGK [5mer-822] has a Binding affinity (RU) of 16 RU.
For RNTDR [5mer-1122], the Binding affinity (RU) was 14 RU.
With KECFK [5mer-823] the Binding affinity (RU) was 26 RU.
Work on KYEKR [5mer-1123] yielded a Binding affinity (RU) of 24 RU.
Binder KIDMK [5mer-824] has a Binding affinity (RU) of 13 RU.
With KKPVK [5mer-1124] the Binding affinity (RU) was 30 RU.
With RDEKK [5mer-825] the Binding affinity (RU) was 14 RU.
RYPFK [5mer-1125] was tested, and the Binding affinity (RU) was 29 RU.
In the case of KCKMK [5mer-826], the Binding affinity (RU) is reported as 11 RU.
For KPTHK [5mer-1126], the Binding affinity (RU) was 26 RU.
For KKAGR [5mer-827], the Binding affinity (RU) was 18 RU.
RIADR [5mer-1127] was tested, and the Binding affinity (RU) was 16 RU.
RFCWR [5mer-828] was tested, and the Binding affinity (RU) was 27 RU.
REWVR [5mer-1128] showed a Binding affinity (RU) of 26 RU.
Binder KCWHR [5mer-829] has a Binding affinity (RU) of 26 RU.
KFDAR [5mer-1129] gave a Binding affinity (RU) of 14 RU.
RIDGK [5mer-830] gave a Binding affinity (RU) of 25 RU.
Work on RFMVR [5mer-1130] yielded a Binding affinity (RU) of 17 RU.
In the case of RAAGK [5mer-831], the Binding affinity (RU) is reported as 24 RU.
KCDGK [5mer-1131] gave a Binding affinity (RU) of 14 RU.
Binder RMHER [5mer-832] has a Binding affinity (RU) of 18 RU.
Binder KFSMK [5mer-1132] has a Binding affinity (RU) of 19 RU.
KATAK [5mer-833] gave a Binding affinity (RU) of 33 RU.
With KCSMK [5mer-1133] the Binding affinity (RU) was 23 RU.
For RMNIK [5mer-834], the Binding affinity (RU) was 15 RU.
